Reference: article PMC9482650, “Quantitative fragmentomics allow affinity mapping of interactomes” (Nature Communications, 2022)
Positions count from the first letter of the chain named.

T1: DFNB31_1, Q9P202
T1 sequence (Q9P202 135-233, limits assumed, looked up): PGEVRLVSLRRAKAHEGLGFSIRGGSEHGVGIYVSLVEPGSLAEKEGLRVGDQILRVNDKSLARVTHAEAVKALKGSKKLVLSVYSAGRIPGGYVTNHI

T2: FRMPD1, Q5SYB0
T2 sequence (Q5SYB0 52-145, limits assumed, looked up): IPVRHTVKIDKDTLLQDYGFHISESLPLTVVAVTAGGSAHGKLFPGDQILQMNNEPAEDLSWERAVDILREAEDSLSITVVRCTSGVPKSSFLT

T3: LIN7A, O14910
T3 sequence (O14910 103-200, limits assumed, looked up): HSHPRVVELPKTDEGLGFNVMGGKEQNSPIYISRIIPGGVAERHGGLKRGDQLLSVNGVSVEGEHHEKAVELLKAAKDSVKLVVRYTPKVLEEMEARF

T4: LIN7B, Q9HAP6
T4 sequence (Q9HAP6 88-185, limits assumed, looked up): T3 sequence (O14910 103-200, limits assumed, looked up) with S2A, V20I, I35V, E42D, H65Q, K77Q, D78G, K89R

T5: LNX2_2, Q8N448
T5 sequence (Q8N448 334-432, limits assumed, looked up): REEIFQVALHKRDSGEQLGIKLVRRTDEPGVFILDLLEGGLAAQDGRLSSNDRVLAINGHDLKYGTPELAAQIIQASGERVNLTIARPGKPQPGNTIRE

T6: MPDZ_10, O75970
T6 sequence (O75970 1624-1722, limits assumed, looked up): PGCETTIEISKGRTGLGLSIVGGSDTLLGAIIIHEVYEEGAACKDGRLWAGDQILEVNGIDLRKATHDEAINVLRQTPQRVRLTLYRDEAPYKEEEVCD

T7: NHERF3_4, Q5T2W1
T7 sequence (Q5T2W1 373-468, limits assumed, looked up): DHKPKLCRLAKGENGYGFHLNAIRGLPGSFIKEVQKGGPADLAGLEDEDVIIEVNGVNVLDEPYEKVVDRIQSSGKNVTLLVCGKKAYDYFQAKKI

T8: PDZD7_3, Q9H5P4
T8 sequence (Q9H5P4 857-944, limits assumed, looked up): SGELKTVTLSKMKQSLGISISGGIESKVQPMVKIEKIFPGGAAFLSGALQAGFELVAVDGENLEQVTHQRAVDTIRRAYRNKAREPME

T9: PDZRN3_1, Q9UPQ7
T9 sequence (Q9UPQ7 244-349, limits assumed, looked up): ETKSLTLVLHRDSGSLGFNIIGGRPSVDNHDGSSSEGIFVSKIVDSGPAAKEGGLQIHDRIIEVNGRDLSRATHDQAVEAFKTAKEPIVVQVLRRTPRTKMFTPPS

T10: RAPGEF6, Q8TEU7
T10 sequence (Q8TEU7 525-625, limits assumed, looked up): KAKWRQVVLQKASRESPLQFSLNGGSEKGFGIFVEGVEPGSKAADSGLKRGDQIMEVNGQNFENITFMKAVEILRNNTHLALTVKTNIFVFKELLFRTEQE

T11: SIPA1L2, Q9P2F8
T11 sequence (Q9P2F8 945-1036, limits assumed, looked up): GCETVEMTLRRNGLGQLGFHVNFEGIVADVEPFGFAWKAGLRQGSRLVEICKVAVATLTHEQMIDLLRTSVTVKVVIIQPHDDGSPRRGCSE

T12: SYNJ2BP, P57105
T12 sequence (P57105 8-110, limits assumed, looked up): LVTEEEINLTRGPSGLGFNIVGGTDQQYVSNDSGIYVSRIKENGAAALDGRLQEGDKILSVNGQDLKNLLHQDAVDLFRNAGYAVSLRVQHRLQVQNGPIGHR

T13: TIAM2, Q8IVF5
T13 sequence (Q8IVF5 885-986, limits assumed, looked up): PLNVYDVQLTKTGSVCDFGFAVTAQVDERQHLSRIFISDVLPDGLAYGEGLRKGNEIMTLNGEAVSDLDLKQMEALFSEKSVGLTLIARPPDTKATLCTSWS


target: T1, DFNB31_1, Q9P202; assay: holdup assay; set-up: key: below the threshold = too weak to quantify, mostly under pKd 3.1 to 4; settings: plain residues with an end cap or a label only (N-terminal biotin on a linker: ado-ado)

Binder | pKd
NVYGTESVKI [GRIA3, P42263] | below the threshold
SRPRPDDLEI [GJA1, P17302] | below the threshold

target: DLG1_2, Q12959; assay: holdup assay; set-up: key: below the threshold = too weak to quantify, mostly under pKd 3.1 to 4; settings: plain residues with an end cap or a label only (N-terminal biotin on a linker: ado-ado)
Sequence (Q12959 314-412): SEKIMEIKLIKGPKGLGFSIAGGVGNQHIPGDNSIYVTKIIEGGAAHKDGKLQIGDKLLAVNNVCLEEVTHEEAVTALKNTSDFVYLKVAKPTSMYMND

Binder | pKd
NVYGTESVKI [GRIA3, P42263] | below the threshold
SRPRPDDLEI [GJA1, P17302] | below the threshold

target: DLG4_2, P78352; assay: holdup assay; set-up: key: below the threshold = too weak to quantify, mostly under pKd 3.1 to 4; settings: plain residues with an end cap or a label only (N-terminal biotin on a linker: ado-ado)
Sequence (P78352 155-259): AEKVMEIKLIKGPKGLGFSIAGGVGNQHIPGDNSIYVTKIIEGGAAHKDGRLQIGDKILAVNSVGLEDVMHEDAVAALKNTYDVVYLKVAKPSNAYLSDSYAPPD

Binder | pKd
NVYGTESVKI [GRIA3, P42263] | below the threshold
SRPRPDDLEI [GJA1, P17302] | below the threshold

target: T2, FRMPD1, Q5SYB0; assay: holdup assay; set-up: key: below the threshold = too weak to quantify, mostly under pKd 3.1 to 4; settings: plain residues with an end cap or a label only (N-terminal biotin on a linker: ado-ado)

Binder | pKd
NVYGTESVKI [GRIA3, P42263] | below the threshold
SRPRPDDLEI [GJA1, P17302] | below the threshold

target: FRMPD2_2, Q68DX3; assay: holdup assay; set-up: key: below the threshold = too weak to quantify, mostly under pKd 3.1 to 4; settings: plain residues with an end cap or a label only (N-terminal biotin on a linker: ado-ado)
Sequence (Q68DX3 944-1038): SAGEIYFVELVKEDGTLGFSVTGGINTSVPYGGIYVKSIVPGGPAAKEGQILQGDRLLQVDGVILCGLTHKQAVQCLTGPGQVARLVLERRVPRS

Binder | pKd
NVYGTESVKI [GRIA3, P42263] | below the threshold
SRPRPDDLEI [GJA1, P17302] | below the threshold

target: FRMPD3, Q5JV73; assay: holdup assay; set-up: key: below the threshold = too weak to quantify, mostly under pKd 3.1 to 4; settings: plain residues with an end cap or a label only (N-terminal biotin on a linker: ado-ado)
Sequence (Q5JV73 12-100): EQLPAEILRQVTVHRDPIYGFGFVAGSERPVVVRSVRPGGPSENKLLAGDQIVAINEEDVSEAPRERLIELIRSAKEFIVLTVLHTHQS

Binder | pKd
NVYGTESVKI [GRIA3, P42263] | below the threshold
SRPRPDDLEI [GJA1, P17302] | below the threshold

target: HTRA1, Q92743; assay: holdup assay; set-up: key: below the threshold = too weak to quantify, mostly under pKd 3.1 to 4; settings: plain residues with an end cap or a label only (N-terminal biotin on a linker: ado-ado)
Sequence (Q92743 360-477): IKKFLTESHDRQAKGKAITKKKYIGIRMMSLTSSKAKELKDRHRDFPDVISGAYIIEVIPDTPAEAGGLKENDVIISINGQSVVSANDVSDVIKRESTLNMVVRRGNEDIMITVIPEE

Binder | pKd
NVYGTESVKI [GRIA3, P42263] | 3.98
SRPRPDDLEI [GJA1, P17302] | below the threshold

target: Inadl_3, Q8NI35; assay: holdup assay; set-up: key: below the threshold = too weak to quantify, mostly under pKd 3.1 to 4; settings: plain residues with an end cap or a label only (N-terminal biotin on a linker: ado-ado)
Sequence (Q8NI35 359-469): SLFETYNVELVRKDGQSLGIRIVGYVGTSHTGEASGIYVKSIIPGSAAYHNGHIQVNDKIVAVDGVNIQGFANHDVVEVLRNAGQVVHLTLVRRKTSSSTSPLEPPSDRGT

Binder | pKd
NVYGTESVKI [GRIA3, P42263] | below the threshold
SRPRPDDLEI [GJA1, P17302] | 3.47

target: T3, LIN7A, O14910; assay: holdup assay; set-up: key: below the threshold = too weak to quantify, mostly under pKd 3.1 to 4; settings: plain residues with an end cap or a label only (N-terminal biotin on a linker: ado-ado)

Binder | pKd
NVYGTESVKI [GRIA3, P42263] | below the threshold
SRPRPDDLEI [GJA1, P17302] | below the threshold

target: T4, LIN7B, Q9HAP6; assay: holdup assay; set-up: key: below the threshold = too weak to quantify, mostly under pKd 3.1 to 4; settings: plain residues with an end cap or a label only (N-terminal biotin on a linker: ado-ado)

Binder | pKd
NVYGTESVKI [GRIA3, P42263] | below the threshold
SRPRPDDLEI [GJA1, P17302] | below the threshold

target: LNX1_2, Q8TBB1; assay: holdup assay; set-up: key: below the threshold = too weak to quantify, mostly under pKd 3.1 to 4; settings: plain residues with an end cap or a label only (N-terminal biotin on a linker: ado-ado)
Sequence (Q8TBB1 371-470): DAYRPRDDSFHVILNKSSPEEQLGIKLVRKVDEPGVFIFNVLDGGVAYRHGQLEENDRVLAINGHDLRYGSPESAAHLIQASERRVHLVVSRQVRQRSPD

Binder | pKd
NVYGTESVKI [GRIA3, P42263] | below the threshold
SRPRPDDLEI [GJA1, P17302] | below the threshold

target: T5, LNX2_2, Q8N448; assay: holdup assay; set-up: key: below the threshold = too weak to quantify, mostly under pKd 3.1 to 4; settings: plain residues with an end cap or a label only (N-terminal biotin on a linker: ado-ado)

Binder | pKd
NVYGTESVKI [GRIA3, P42263] | 3.74
SRPRPDDLEI [GJA1, P17302] | below the threshold

target: MAST2, Q6P0Q8; assay: holdup assay; set-up: key: below the threshold = too weak to quantify, mostly under pKd 3.1 to 4; settings: plain residues with an end cap or a label only (N-terminal biotin on a linker: ado-ado)
Sequence (Q6P0Q8 1099-1202): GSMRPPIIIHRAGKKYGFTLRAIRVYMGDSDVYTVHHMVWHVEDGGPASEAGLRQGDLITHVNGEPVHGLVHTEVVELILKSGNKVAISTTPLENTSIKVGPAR

Binder | pKd
NVYGTESVKI [GRIA3, P42263] | 3.81
SRPRPDDLEI [GJA1, P17302] | 3.75

target: T6, MPDZ_10, O75970; assay: holdup assay; set-up: key: below the threshold = too weak to quantify, mostly under pKd 3.1 to 4; settings: plain residues with an end cap or a label only (N-terminal biotin on a linker: ado-ado)

Binder | pKd
NVYGTESVKI [GRIA3, P42263] | below the threshold
SRPRPDDLEI [GJA1, P17302] | below the threshold

target: T7, NHERF3_4, Q5T2W1; assay: holdup assay; set-up: key: below the threshold = too weak to quantify, mostly under pKd 3.1 to 4; settings: plain residues with an end cap or a label only (N-terminal biotin on a linker: ado-ado)

Binder | pKd
NVYGTESVKI [GRIA3, P42263] | below the threshold
SRPRPDDLEI [GJA1, P17302] | below the threshold

target: T8, PDZD7_3, Q9H5P4; assay: holdup assay; set-up: key: below the threshold = too weak to quantify, mostly under pKd 3.1 to 4; settings: plain residues with an end cap or a label only (N-terminal biotin on a linker: ado-ado)

Binder | pKd
NVYGTESVKI [GRIA3, P42263] | below the threshold
SRPRPDDLEI [GJA1, P17302] | below the threshold

target: T9, PDZRN3_1, Q9UPQ7; assay: holdup assay; set-up: key: below the threshold = too weak to quantify, mostly under pKd 3.1 to 4; settings: plain residues with an end cap or a label only (N-terminal biotin on a linker: ado-ado)

Binder | pKd
NVYGTESVKI [GRIA3, P42263] | below the threshold
SRPRPDDLEI [GJA1, P17302] | below the threshold

target: PTPN3, P26045; assay: holdup assay; set-up: key: below the threshold = too weak to quantify, mostly under pKd 3.1 to 4; settings: plain residues with an end cap or a label only (N-terminal biotin on a linker: ado-ado)
Sequence (P26045 505-587): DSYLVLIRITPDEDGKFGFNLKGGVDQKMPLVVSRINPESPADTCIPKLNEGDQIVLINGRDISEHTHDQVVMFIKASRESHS

Binder | pKd
NVYGTESVKI [GRIA3, P42263] | below the threshold
SRPRPDDLEI [GJA1, P17302] | below the threshold

target: T10, RAPGEF6, Q8TEU7; assay: holdup assay; set-up: key: below the threshold = too weak to quantify, mostly under pKd 3.1 to 4; settings: plain residues with an end cap or a label only (N-terminal biotin on a linker: ado-ado)

Binder | pKd
NVYGTESVKI [GRIA3, P42263] | below the threshold
SRPRPDDLEI [GJA1, P17302] | below the threshold

target: SCRIB_2, Q14160; assay: holdup assay; set-up: key: below the threshold = too weak to quantify, mostly under pKd 3.1 to 4; settings: plain residues with an end cap or a label only (N-terminal biotin on a linker: ado-ado)
Sequence (Q14160 857-960): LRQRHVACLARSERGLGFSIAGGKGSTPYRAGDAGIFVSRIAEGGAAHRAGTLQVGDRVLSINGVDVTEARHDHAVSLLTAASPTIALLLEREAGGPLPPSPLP

Binder | pKd
NVYGTESVKI [GRIA3, P42263] | below the threshold
SRPRPDDLEI [GJA1, P17302] | below the threshold

target: T11, SIPA1L2, Q9P2F8; assay: holdup assay; set-up: key: below the threshold = too weak to quantify, mostly under pKd 3.1 to 4; settings: plain residues with an end cap or a label only (N-terminal biotin on a linker: ado-ado)

Binder | pKd
NVYGTESVKI [GRIA3, P42263] | below the threshold
SRPRPDDLEI [GJA1, P17302] | below the threshold

target: SNX27, Q96L92; assay: holdup assay; set-up: key: below the threshold = too weak to quantify, mostly under pKd 3.1 to 4; settings: plain residues with an end cap or a label only (N-terminal biotin on a linker: ado-ado)

Binder | pKd
NVYGTESVKI [GRIA3, P42263] | below the threshold
SRPRPDDLEI [GJA1, P17302] | below the threshold

target: T12, SYNJ2BP, P57105; assay: holdup assay; set-up: key: below the threshold = too weak to quantify, mostly under pKd 3.1 to 4; settings: plain residues with an end cap or a label only (N-terminal biotin on a linker: ado-ado)

Binder | pKd
NVYGTESVKI [GRIA3, P42263] | below the threshold
SRPRPDDLEI [GJA1, P17302] | below the threshold

target: T13, TIAM2, Q8IVF5; assay: holdup assay; set-up: key: below the threshold = too weak to quantify, mostly under pKd 3.1 to 4; settings: plain residues with an end cap or a label only (N-terminal biotin on a linker: ado-ado)

Binder | pKd
NVYGTESVKI [GRIA3, P42263] | below the threshold
SRPRPDDLEI [GJA1, P17302] | below the threshold
